B1: BSPSMA/CD3-1400 PSMA arm (antibody, V domains shown)
VH: QVQLVESGGGVVQPGRSLRLSCAASGFTFSSYGMHWVRQAPGKGLEWVAVISYAGNNKYYADSVKGRFTVSRDNSKKTLYLQMNSLRSEDTAVYYCAKDSYYDFLTDPDVLDIWGQGTMVTVSS
VL: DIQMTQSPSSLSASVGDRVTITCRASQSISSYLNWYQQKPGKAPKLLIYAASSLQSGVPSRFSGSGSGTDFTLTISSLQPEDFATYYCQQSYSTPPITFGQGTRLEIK
B2: BSPSMA/CD3-003 PSMA arm (antibody, V domains shown)
VH: QVQLVESGGGVVQPGRSLRLSCAASGFTFSSYGMHWVRQAPGKGLEWVAVISYAGNNKYYADSVKGRFTVSRDNSKKTLYLQMNSLRSEDTAVYYCAKDSYYDFLTDPDVLDIWGQGTMVTVSS
VL: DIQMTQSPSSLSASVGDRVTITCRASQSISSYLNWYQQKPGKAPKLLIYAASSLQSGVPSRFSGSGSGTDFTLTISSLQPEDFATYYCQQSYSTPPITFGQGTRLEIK
B3: BSPSMA/CD3-1500 PSMA arm (antibody, V domains shown)
VH: QVQLVESGGGVVQPGRSLRLSCAASGFTFSSYGMHWVRQAPGKGLEWVAVISYAGNNKYYADSVKGRFTVSRDNSKKTLYLQMNSLRSEDTAVYYCAKDSYYDFLTDPDVLDIWGQGTMVTVSS
VL: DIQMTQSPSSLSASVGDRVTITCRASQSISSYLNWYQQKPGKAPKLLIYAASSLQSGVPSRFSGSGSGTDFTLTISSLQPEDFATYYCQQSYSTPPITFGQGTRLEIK
B4: BSPSMA/CD3-1700 PSMA arm (antibody, V domains shown)
VH: QVQLVESGGGVVQPGRSLRLSCAASGFTFSSYGMHWVRQAPGKGLEWVAVISYAGNNKYYADSVKGRFTVSRDNSKKTLYLQMNSLRSEDTAVYYCAKDSYYDFLTDPDVLDIWGQGTMVTVSS
VL: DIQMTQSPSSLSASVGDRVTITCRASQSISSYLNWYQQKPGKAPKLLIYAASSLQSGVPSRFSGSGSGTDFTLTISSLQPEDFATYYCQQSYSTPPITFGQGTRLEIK
B5: BSPSMA/CD3-004 PSMA arm (antibody, V domains shown)
VH: QVQLVESGGGVVQPGRSLRLSCAASGFTFSSYGMHWVRQAPGKGLEWVAVISYAGNNKYYADSVKGRFTVSRDNSKKTLYLQMNSLRSEDTAVYYCAKDSYYDFLTDPDVLDIWGQGTMVTVSS
VL: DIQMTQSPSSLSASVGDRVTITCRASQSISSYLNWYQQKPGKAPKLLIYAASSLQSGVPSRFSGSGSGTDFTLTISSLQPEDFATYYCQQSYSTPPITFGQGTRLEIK
B6: BSPSMA/CD3-900 PSMA arm (antibody, V domains shown)
VH: QVQLVESGGGVVQPGRSLRLSCAASGFTFSSYGMHWVRQAPGKGLEWVAVISYAGNNKYYADSVKGRFTVSRDNSKKTLYLQMNSLRSEDTAVYYCAKDSYYDFLTDPDVLDIWGQGTMVTVSS
VL: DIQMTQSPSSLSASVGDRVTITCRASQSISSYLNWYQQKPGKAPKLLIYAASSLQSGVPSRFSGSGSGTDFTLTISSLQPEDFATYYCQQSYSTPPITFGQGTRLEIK
B7: BSPSMA/CD3-2100 PSMA arm (antibody, V domains shown)
VH: QVQLVESGGGVVQPGRSLRLSCAASGFTFSSYGMHWVRQAPGKGLEWVAVISYAGNNKYYADSVKGRFTVSRDNSKKTLYLQMNSLRSEDTAVYYCAKDSYYDFLTDPDVLDIWGQGTMVTVSS
VL: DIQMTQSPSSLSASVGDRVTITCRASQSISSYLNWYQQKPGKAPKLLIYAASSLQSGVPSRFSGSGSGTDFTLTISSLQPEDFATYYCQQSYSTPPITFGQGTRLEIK
B8: BSPSMA/CD3-1300 PSMA arm (antibody, V domains shown)
VH: QVQLVESGGGVVQPGRSLRLSCAASGFTFSSYGMHWVRQAPGKGLEWVAVISYAGNNKYYADSVKGRFTVSRDNSKKTLYLQMNSLRSEDTAVYYCAKDSYYDFLTDPDVLDIWGQGTMVTVSS
VL: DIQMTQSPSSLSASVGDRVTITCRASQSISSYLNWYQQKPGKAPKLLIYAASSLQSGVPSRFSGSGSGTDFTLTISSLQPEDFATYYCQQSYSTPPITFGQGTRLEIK
B9: BSPSMA/CD3-300 PSMA arm (antibody, V domains shown)
VH: QVQLVESGGGVVQPGRSLRLSCAASGFTFSSYGMHWVRQAPGKGLEWVAVISYAGNNKYYADSVKGRFTVSRDNSKKTLYLQMNSLRSEDTAVYYCAKDSYYDFLTDPDVLDIWGQGTMVTVSS
VL: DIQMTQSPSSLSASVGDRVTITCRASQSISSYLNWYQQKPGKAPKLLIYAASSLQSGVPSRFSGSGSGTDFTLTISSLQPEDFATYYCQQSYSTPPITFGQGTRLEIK
B10: BSPSMA/CD3-800 PSMA arm (antibody, V domains shown)
VH: QVQLVESGGGVVQPGRSLRLSCAASGFTFSSYGMHWVRQAPGKGLEWVAVISYAGNNKYYADSVKGRFTVSRDNSKKTLYLQMNSLRSEDTAVYYCAKDSYYDFLTDPDVLDIWGQGTMVTVSS
VL: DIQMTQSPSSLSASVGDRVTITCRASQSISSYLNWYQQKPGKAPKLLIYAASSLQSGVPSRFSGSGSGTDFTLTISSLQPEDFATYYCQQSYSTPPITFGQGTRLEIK
B11: BSPSMA/CD3-400 PSMA arm (antibody, V domains shown)
VH: QVQLVESGGGVVQPGRSLRLSCAASGFTFSSYGMHWVRQAPGKGLEWVAVISYAGNNKYYADSVKGRFTVSRDNSKKTLYLQMNSLRSEDTAVYYCAKDSYYDFLTDPDVLDIWGQGTMVTVSS
VL: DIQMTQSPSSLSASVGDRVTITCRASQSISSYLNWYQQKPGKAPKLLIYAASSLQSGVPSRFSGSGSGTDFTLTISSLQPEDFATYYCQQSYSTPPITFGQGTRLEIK
B12: BSPSMA/CD3-1600 PSMA arm (antibody, V domains shown)
VH: QVQLVESGGGVVQPGRSLRLSCAASGFTFSSYGMHWVRQAPGKGLEWVAVISYAGNNKYYADSVKGRFTVSRDNSKKTLYLQMNSLRSEDTAVYYCAKDSYYDFLTDPDVLDIWGQGTMVTVSS
VL: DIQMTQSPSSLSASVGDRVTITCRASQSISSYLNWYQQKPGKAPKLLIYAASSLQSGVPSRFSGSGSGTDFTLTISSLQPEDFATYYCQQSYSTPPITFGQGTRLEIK
B13: BSPSMA/CD3-1200 PSMA arm (antibody, V domains shown)
VH: QVQLVESGGGVVQPGRSLRLSCAASGFTFSSYGMHWVRQAPGKGLEWVAVISYAGNNKYYADSVKGRFTVSRDNSKKTLYLQMNSLRSEDTAVYYCAKDSYYDFLTDPDVLDIWGQGTMVTVSS
VL: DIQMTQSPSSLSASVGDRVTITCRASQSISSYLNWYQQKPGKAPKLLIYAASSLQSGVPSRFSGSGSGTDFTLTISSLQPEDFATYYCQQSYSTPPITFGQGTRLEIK

This passage reports EC50 results from US20210403595 (published 2021).

human PSMA on cells (human), sequence (A4UU12 whole entry): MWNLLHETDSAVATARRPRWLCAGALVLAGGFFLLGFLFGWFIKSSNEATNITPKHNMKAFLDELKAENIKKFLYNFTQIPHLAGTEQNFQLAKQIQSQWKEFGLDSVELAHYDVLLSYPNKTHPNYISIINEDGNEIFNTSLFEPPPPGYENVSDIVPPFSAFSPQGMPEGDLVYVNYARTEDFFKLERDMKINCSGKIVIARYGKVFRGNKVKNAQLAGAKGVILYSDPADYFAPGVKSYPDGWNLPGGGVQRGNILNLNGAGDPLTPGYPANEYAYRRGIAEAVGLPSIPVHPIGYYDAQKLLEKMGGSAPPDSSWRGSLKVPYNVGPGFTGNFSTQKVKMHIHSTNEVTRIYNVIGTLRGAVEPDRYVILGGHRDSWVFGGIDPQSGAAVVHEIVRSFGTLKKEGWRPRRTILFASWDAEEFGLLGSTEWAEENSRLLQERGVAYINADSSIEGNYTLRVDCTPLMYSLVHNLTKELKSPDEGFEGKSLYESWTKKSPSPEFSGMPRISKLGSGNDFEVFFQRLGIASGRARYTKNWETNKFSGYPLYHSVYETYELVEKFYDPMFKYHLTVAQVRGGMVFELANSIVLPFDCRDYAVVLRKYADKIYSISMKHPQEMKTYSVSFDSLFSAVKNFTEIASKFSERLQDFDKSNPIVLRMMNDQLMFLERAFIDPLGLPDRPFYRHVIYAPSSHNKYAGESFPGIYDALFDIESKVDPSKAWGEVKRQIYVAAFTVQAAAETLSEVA

This experiment concerns the target human PSMA on cells (human). The experiment can be described thus: FACS, B16F10.9/PSMA. (A flow cytometer gives signals particle by particle.)
Consider B1, for which the EC50 is 1.3 nM.

On to B2, for which the EC50 amounted to 2.26 nM.

Regarding B3, the half-maximal effective concentration (EC50) turned out to be 1.21 nM. This EC50 is about 1.9-fold lower than that of the molecule before.

For B4, the EC50 was found to be 1.34 nM.

B5 had an EC50 of 1.31 nM.

As to B6, the EC50 was 1.43 nM.

Regarding B7, the EC50 was 1.14 nM.

In the case of B8, the half-maximal effective concentration (EC50) was 1.25 nM. The EC50 values of the last two molecules are within 1.5-fold of each other.

As to B9, the EC50 turned out to be 1.9 nM.

B10 yielded a concentration giving a half-maximal response (EC50) of 1.31 nM.

In turn, B11 had an EC50 of 1.72 nM.

B12: the EC50 was determined as 1.03 nM.

In turn, B13 came in with an EC50 of 1.16 nM.

What is called EC50 is the concentration that produces a half-maximal response. Higher therefore signals a need for much substance.
